Experimental data reported in PMC3735194 (mBio, 2013).

B1: D166A mutant ADI (enzyme, UniProt P0C0B3 1-411, looked up)
chain: MTAQTPIHVYSEIGKLKKVLLHRPGKEIENLMPDYLERLLFDDIPFLEDAQKEHDAFAQALRDEGIEVLYLETLAAESLVTPEIREAFIDEYLSEANIRGRATKKAIRELLMAIEDNQELIEKTMAGVQKSELPEIPASEKGLTDLVESNYPFAIDPMPNLYFTRAPFATIGTGVSLNHMFSETRNRETLYGKYIFTHHPIYGGGKVPMVYDRNETTRIEGGDELVLSKDVLAVGISQRTDAASIEKLLVNIFKQNLGFKKVLAFEFANNRKFMHLDTVFTMVDYDKFTIHPEIEGDLRVYSVTYDNEELHIVEEKGDLAELLAANLGVEKVDLIRCGGDNLVAAGREQWNDGSNTLTIAPGVVVVYNRNTITNAILESKGLKLIKIHGSELVRGRGGPRCMSMPFEREDI
B2: D277A mutant ADI (enzyme, UniProt P0C0B3 1-411, looked up)
chain: MTAQTPIHVYSEIGKLKKVLLHRPGKEIENLMPDYLERLLFDDIPFLEDAQKEHDAFAQALRDEGIEVLYLETLAAESLVTPEIREAFIDEYLSEANIRGRATKKAIRELLMAIEDNQELIEKTMAGVQKSELPEIPASEKGLTDLVESNYPFAIDPMPNLYFTRDPFATIGTGVSLNHMFSETRNRETLYGKYIFTHHPIYGGGKVPMVYDRNETTRIEGGDELVLSKDVLAVGISQRTDAASIEKLLVNIFKQNLGFKKVLAFEFANNRKFMHLATVFTMVDYDKFTIHPEIEGDLRVYSVTYDNEELHIVEEKGDLAELLAANLGVEKVDLIRCGGDNLVAAGREQWNDGSNTLTIAPGVVVVYNRNTITNAILESKGLKLIKIHGSELVRGRGGPRCMSMPFEREDI
B3: E220A mutant ADI (enzyme, UniProt P0C0B3 1-411, looked up)
chain: MTAQTPIHVYSEIGKLKKVLLHRPGKEIENLMPDYLERLLFDDIPFLEDAQKEHDAFAQALRDEGIEVLYLETLAAESLVTPEIREAFIDEYLSEANIRGRATKKAIRELLMAIEDNQELIEKTMAGVQKSELPEIPASEKGLTDLVESNYPFAIDPMPNLYFTRDPFATIGTGVSLNHMFSETRNRETLYGKYIFTHHPIYGGGKVPMVYDRNETTRIAGGDELVLSKDVLAVGISQRTDAASIEKLLVNIFKQNLGFKKVLAFEFANNRKFMHLDTVFTMVDYDKFTIHPEIEGDLRVYSVTYDNEELHIVEEKGDLAELLAANLGVEKVDLIRCGGDNLVAAGREQWNDGSNTLTIAPGVVVVYNRNTITNAILESKGLKLIKIHGSELVRGRGGPRCMSMPFEREDI
B4: H275A mutant ADI (enzyme, UniProt P0C0B3 1-411, looked up)
chain: MTAQTPIHVYSEIGKLKKVLLHRPGKEIENLMPDYLERLLFDDIPFLEDAQKEHDAFAQALRDEGIEVLYLETLAAESLVTPEIREAFIDEYLSEANIRGRATKKAIRELLMAIEDNQELIEKTMAGVQKSELPEIPASEKGLTDLVESNYPFAIDPMPNLYFTRDPFATIGTGVSLNHMFSETRNRETLYGKYIFTHHPIYGGGKVPMVYDRNETTRIEGGDELVLSKDVLAVGISQRTDAASIEKLLVNIFKQNLGFKKVLAFEFANNRKFMALDTVFTMVDYDKFTIHPEIEGDLRVYSVTYDNEELHIVEEKGDLAELLAANLGVEKVDLIRCGGDNLVAAGREQWNDGSNTLTIAPGVVVVYNRNTITNAILESKGLKLIKIHGSELVRGRGGPRCMSMPFEREDI
B5: C401A mutant ADI (enzyme, UniProt P0C0B3 1-411, looked up)
chain: MTAQTPIHVYSEIGKLKKVLLHRPGKEIENLMPDYLERLLFDDIPFLEDAQKEHDAFAQALRDEGIEVLYLETLAAESLVTPEIREAFIDEYLSEANIRGRATKKAIRELLMAIEDNQELIEKTMAGVQKSELPEIPASEKGLTDLVESNYPFAIDPMPNLYFTRDPFATIGTGVSLNHMFSETRNRETLYGKYIFTHHPIYGGGKVPMVYDRNETTRIEGGDELVLSKDVLAVGISQRTDAASIEKLLVNIFKQNLGFKKVLAFEFANNRKFMHLDTVFTMVDYDKFTIHPEIEGDLRVYSVTYDNEELHIVEEKGDLAELLAANLGVEKVDLIRCGGDNLVAAGREQWNDGSNTLTIAPGVVVVYNRNTITNAILESKGLKLIKIHGSELVRGRGGPRAMSMPFEREDI

Molecular target: the molecule itself
Test: native MS

Row | Protein | stoichiometry N
1 | B1 | 2
2 | B2 | 2
3 | B3 | 2
4 | B4 | 2
5 | B5 | 4
